Experimental findings from US20250057980 are described below.

The target of this data set is T1, Bxb1 integrase (Mycobacterium phage Bxb1?) (UniProt Q9B086).
T1 sequence: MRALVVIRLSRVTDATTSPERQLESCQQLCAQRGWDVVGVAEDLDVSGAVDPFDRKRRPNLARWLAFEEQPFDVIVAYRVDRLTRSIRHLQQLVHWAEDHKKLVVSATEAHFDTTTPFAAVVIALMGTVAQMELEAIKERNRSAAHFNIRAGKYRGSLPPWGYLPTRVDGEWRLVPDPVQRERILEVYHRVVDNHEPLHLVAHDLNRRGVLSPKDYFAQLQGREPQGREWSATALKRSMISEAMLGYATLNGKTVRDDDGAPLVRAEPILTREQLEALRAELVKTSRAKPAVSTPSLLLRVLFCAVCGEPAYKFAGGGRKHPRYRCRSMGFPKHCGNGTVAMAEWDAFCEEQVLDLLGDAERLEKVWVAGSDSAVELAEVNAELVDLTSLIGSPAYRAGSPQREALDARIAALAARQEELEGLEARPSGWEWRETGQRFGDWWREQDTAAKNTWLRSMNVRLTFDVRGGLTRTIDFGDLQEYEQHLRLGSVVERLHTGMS
The data set can be described thus: cell_activity. Conditions: in vivo mouse liver, 1E11 vg Bxb1 AdV, 1E12 vg AAV; about 7% at 3E10 vg.

Take “AttP GT/GA dual site in Rosa26 of AttP mice with 38 bp GT AttB AAV donor”: the activity (% integration) was 11.
